Results reported in patent US20210261636A1, “NEOANTIGENS EXPRESSED IN MULTIPLE MYELOMA AND THEIR USES” (Janssen Biotech, Inc., priority 2020, published 2021).

B1: YESPIFSRDRVNPGALSGSLGQARAACWRTLGSLKPGGEFRAAEQRRAGWVPGAPGFTCSLISSRFPRERFCLRHRSSWRGARRVQCVCPGQTEGLWL (peptide)
chain: YESPIFSRDRVNPGALSGSLGQARAACWRTLGSLKPGGEFRAAEQRRAGWVPGAPGFTCSLISSRFPRERFCLRHRSSWRGARRVQCVCPGQTEGLWL
notes: alternative splicing, WNT10A
B2: EIEGSCHGGMITMDIKMGSYSCDYLKHSETLSAMVVSCGISFLFLFPRKKIAKLIFKEQVP (peptide)
chain: EIEGSCHGGMITMDIKMGSYSCDYLKHSETLSAMVVSCGISFLFLFPRKKIAKLIFKEQVP
notes: alternative splicing, EPHA6
B3: GWKICREGIGPVMLTMTSGEWSFSFLEAICGVSREPVPRRRHCIWDTRGGVGLCEASCWRPTSEVG (peptide)
chain: GWKICREGIGPVMLTMTSGEWSFSFLEAICGVSREPVPRRRHCIWDTRGGVGLCEASCWRPTSEVG
notes: alternative splicing, STARD5
B4: SLLIGALRITWKREAGRKSFFKCGLRVHMWKGLQFIEITRRNWMLIFQSCSLFGTSQYRSLTKKCQLCFRFKRVSSKGSDITDKREVTH (peptide)
chain: SLLIGALRITWKREAGRKSFFKCGLRVHMWKGLQFIEITRRNWMLIFQSCSLFGTSQYRSLTKKCQLCFRFKRVSSKGSDITDKREVTH
notes: alternative splicing, ARHGAP42
B5: VYPVYQPVVSQAGLGELWQWASGKLRGYCWRRGQWHAYSIQCDPHPVFGEGACDCSETEAHGGCQSPRLESFPGQPPGFRGQRF (peptide)
chain: VYPVYQPVVSQAGLGELWQWASGKLRGYCWRRGQWHAYSIQCDPHPVFGEGACDCSETEAHGGCQSPRLESFPGQPPGFRGQRF
notes: gene fusion NDUFB8-> SEC31B
B6: MSATTGSQDNPEGKRDPSRKFQEQKALPKRPPLQKNLRNGVGQHYPATLTSRTRNSIKMRHSRTTRARRPPPSPVLPWAASNSQARPETSSLSEKSPEV (peptide)
chain: MSATTGSQDNPEGKRDPSRKFQEQKALPKRPPLQKNLRNGVGQHYPATLTSRTRNSIKMRHSRTTRARRPPPSPVLPWAASNSQARPETSSLSEKSPEV
notes: alternative splicing, CSAG1
B7: RQREVVDLVKKDLVMRAVSLGTQRGDQNGRPSWSGHAIWARIMECAYKGQQECLVETGALGPMAFRVHLGSQVGMDSKEKRGNV (peptide)
chain: RQREVVDLVKKDLVMRAVSLGTQRGDQNGRPSWSGHAIWARIMECAYKGQQECLVETGALGPMAFRVHLGSQVGMDSKEKRGNV
notes: alternative splicing, CTHRC1

What follows are molecules tested on CD8+ T cells (assay: Exogenous autologous healthy donor restimulation assay, TNFα and IFNγ production by CD8+ T cells). Conditions: maximum CD8+ T-cell response (TNFα and IFNγ), donor independent; peptide pool 10 μg/mL, healthy donors.
Type: cell-based, human
Set-up: Frequency (TNFα+ IFNγ+ CD8 T cells): unit not given here
Summary of the method: (§1)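 CD1c+ DCs from healthy donor PBMCs pulsed 2 h with 15-mer overlapping neoantigen peptide pools (10 μg/mL), irradiated 50 Gy, then co-cultured 12 days with autologous CD3+ T cells plus IL-15/IL-2. Restimulated day 11 with same pools, overnight with protein inhibitor; intracellular TNFα/IFNγ by flow. Positive: ≥3-fold over DMSO and ≥0.01% double-positive.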

Row | Molecule | Fold change (CD8+) vs. DMSO
1 | B1 | 38.74
2 | B2 | 100
3 | B3 | 874.02
4 | B4 | 1100
5 | B5 | 42.81
6 | B6 | 6327.68
7 | B7 | 288.14

Same assay, conditions: maximum CD8+ T-cell response, donor independent; peptide pool 10 μg/mL, healthy donors

Row | Molecule | Frequency (TNFα+ IFNγ+ CD8 T cells)
8 | B1 | 0.095
9 | B2 | 17
10 | B3 | 7.77
11 | B4 | 0.29
12 | B5 | 0.064
13 | B6 | 11.2
14 | B7 | 0.51

Same assay, conditions: positive if CD8+ and/or CD4+ double positive TNFα/IFNγ frequency >=3-fold over DMSO and at least 0.01%

Row | Molecule | Immunogenic (yes/no)
15 | B1 | Yes
16 | B2 | Yes
17 | B3 | Yes
18 | B4 | Yes
19 | B5 | Yes
20 | B6 | Yes
21 | B7 | Yes

The molecules below were run on CD4+ T cells (assay: Exogenous autologous healthy donor restimulation assay, TNFα and IFNγ production by CD4+ T cells). Conditions: maximum CD4+ T-cell response (TNFα and IFNγ), donor independent; peptide pool 10 μg/mL, healthy donors.
Type: cell-based, human
Set-up: Frequency (TNFα+ IFNγ+ CD4 T cells): unit not given here
Summary of the method: as §1

Row | Molecule | Fold change (CD4+) vs. DMSO
22 | B1 | 12.303
23 | B2 | 111.44
24 | B3 | 44.35
25 | B4 | 15.34
26 | B5 | 1.94
27 | B6 | 79.18
28 | B7 | 223.78

Same assay, conditions: maximum CD4+ T-cell response, donor independent; peptide pool 10 μg/mL, healthy donors

Row | Molecule | Frequency (TNFα+ IFNγ+ CD4 T cells)
29 | B1 | 0.071
30 | B2 | 0.57
31 | B3 | 0.081
32 | B4 | 0.1
33 | B5 | 0.011
34 | B6 | 0.12
35 | B7 | 0.16
